From the RNAGym collection of RNA variant scans (doi:10.1073/pnas.2313332121)

B1: TPR t1 (parent)
chain: GACCAAUCUGCCCUCAGAGCUCGAGAACAUCUUCGGAUGCAGAGGAGGCAGGCUUCGGUGGCGCGAUAGCGCCAACGUCCUCAACCUCCAAUGCAUCCCACCACAUGAUGAUGCCUGAAGAGCCUUGGUUUUUUG

Variants of: B1
Assay: polymerase ribozyme fitness, log enrichment relative to wild type (log ratio); higher = more active; in vitro selection for triplet polymerase activity
Summary of the method: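 To select mutant libraries of each subunit of a heterodimeric triplet polymerase ribozyme, built by PCR and transcribed, each was annealed with a biotinylated primer, partner subunit and triplets, then incubated frozen at −7 °C. Extended constructs were gel-excised, captured on streptavidin beads and amplified by RT-PCR, in one round carried out in triplicate. Illumina sequencing of input and output libraries kept genotypes with ≥10 input reads and ≥1 read per output. Fitness is the base-2 logarithm of genotype enrichment relative to wild-type enrichment, from inverse-variance-weighted replicate averages.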

Variant | polymerase ribozyme fitness (log ratio)
GACCAAUCUGCCCUCAGCGCUCGAGAACAUCUUUGGAUGCAGAGGAGGCAGGCUUCGGUGGCGCGAUAGCGCCAACGUCCUCAACCUCCAAUGCAUCCCACCACAUGAUGAAGCCUGAGGAGCCUUGGUUUUUUG [A18C C34U U112A A119G] | -6.08
GACCAAUCUGCCCUCAGCGGUCGAGAACAUCUUCGGAUGCAGAGGAUUCAGGCUUCGGUGGCGCGAUAGCGCCAACGUCCUCAACCUCCAAUGCAUCCCACCACAUGAUGAUGCCUGAAGAGCCUUGGUUUUUUG [A18C C20G G47U G48U] | -4.66
GACCAAUCUGCCCUCAGCGCUCGAGAACAUCUUCGGAUGCAGAGGAGGCAGGCUUCGGUGGCGCGAUAGCGCCAACGUCCUCGACCUCCAAUGCAUCCCACCACGUGAUGAUGCUUGAAGAGCCUUGGUUUUUUG [A18C A83G A105G C115U] | -3.42
GACCAAUCUGCCCUCAGCGCUCGAGAACAUCUUCGGAUGAAGAGGAGGCAGGCUUCGGUGGCGCGAUAGCGCCAACGGCCUGAACCUCCAAUGCAUCCCACCACAUGAUGAUGCCUGAAGUGCCUUGGUAUUUUG [A18C C40A U78G C82G A121U U130A] | -3.87
GACCAAUCUGCCCUCAGCGCUCGAGAACAUCUUCGGAUGCAGUGGAGGCAGGCUUCGGUGGCACGAUAGCGCCAACGUCCACAACCUCCAAUGCAUCCCACCACAUGAUGAUGCCUGAAGAGCCUUGGUUUUUUG [A18C A43U G63A U81A] | -6.15
GACCAAUCUGCCCUCAGCGCUCGAGAACAUCUUCGGAUGCAGAGGAGGCAGGGUUCGGUGGCGCGAUAGCGCCAAUGUCCUCAACCUCCAAUGCAUCCCACCACAUGAUGAUGCCUGAAGAGCCUUGGUUUUUUG [A18C C53G C76U] | -3.42
GACCAAUCUGCCCUCAUAGCUCGAGAACAUCUUCGGAUGCAGAGGAGGCAGGCUUCGGUGGCGCGAUAGCGCCAACGUCCUCAACCGCCAAUGCAUCCCACCACAUGAUGAUGCCUGAAGAGCCUUGGUUUUUUG [G17U U87G] | -2.25
GACCAAUCUGCCCUCAUAGCUCGAGAACAUCUUCGGAUGCAGAGGAGGCAGGCUUCGGUGGCGCGAUAGCGCCAACGUCCUCAACCACCAAUGCAUCCCACCACAUGAUGAUGCCUGAAGAGCCUUGGUUUUUUG [G17U U87A] | -2.81
GACCAAUCUGCCCUCAUAGCUCGAGAACAUCUUCGGAUGCAGAGGAGGCAGGCUUCGGUGGCGCGAUAGCGCCAACGCCCUCAACCUCCAAUGCAUCCCACCACAUGAUGAUGGCUGAAGAGCCUUGGUUUUUUG [G17U U78C C114G] | -5.37
GACCAAUCUGCCCUCAGCGCUUGAGAACAUCUUCGGAUGUAGAGGAGGCAGGCUUCGGUGGCGCGAUAGCUCCAACGUCCUCAACCUCCAAUGCAUCCCACCACAUGAUGAUGCCUGUAGAGCCUUGGUUUUUUG [A18C C22U C40U G71U A118U] | -6.12
GACCAAUCUGCCCUCAGCGAUCGAGAACAUCUUCGGAUGCAGAGGAGGCAGGCUCCAGUGGCACGAUAGCGCCAACGUCCUCAACCUCCAAUGCAUCCCACCACAUGAUGAUGCCUGAAGAGCCUUGGUUUUUUG [A18C C20A U55C G57A G63A] | -4.91
GACCAAUCUGCCCUCAGCGCUCGAGAACAUCUUCGGAUGCAGAGGAGGCAGGCUUCGGUGGCGCGAUAGCGCCCACGUCCUCACCCUCCAAUGCAUCCCACCACAUGAUGAUGCUUGAAGAGCCUUGGUUUUUUG [A18C A74C A84C C115U] | -1.56
GACCAAUCUGCCCUCAGCGCUCGAGAACAUCUUCGGAUGCAGAGGAGGCAGGCUUCGGUGGCGCGAUAGCGCCAACGUCCUCCACCUCCAAUGCAUCCCACCACAUGAUGAUGCCUGAAGAGCCUUGGUUUUUUG [A18C A83C] | -1.95
GACCAAUCUGCCCUCAUAGCUCGAGAACAUCUUCGGAUGCAGAGGAGGCAGGCUUCGGUGGCGCGAUAGCGCCAACGUCCUCAACCUCCAAUGCAACCCACCACAUGAUGAUGCCUGAGGAGCCUUGGUUUUUUG [G17U U96A A119G] | -1.01
GACCAAUCUGCCCUCAUAGCUCGAGAACAUCUUCGGAUGCAGAGGAGGCAGGCUUCGGUGGCGCGAUAGCGCCAACGUCCUCAACCACCAAUGCAUCCCACCACAAGAUGAUGCCUGAAGAGCCUUGAUUUUUUG [G17U U87A U106A G128A] | -3.83
GACCAAUCUGCCCUCAGCGCUCGAGAACAUCUUCGGAUGGAGAGGAGGCAGGCUUCGGUGGCGCGAUAGAGCCAACGUCCUCGACCUCCAAUGUAUCCCACCACAUGAUGAUGCUUGAAGAGCCUUGGGUUUUUG [A18C C40G C70A A83G C94U C115U U129G] | -5.58
GACCAAUCUGCCCUCAGCGCUCGAGAACAUCUUCGGAUGCAGAGGAGGCUGGCUUCGGUUGCGCGAUAGCGCCAACGUCCUCAACCUCCAAUGCAUCCCACAACAUGAUGAUGCCUGAGGAGCCUUUGUUUUUUG [A18C A50U G60U C102A A119G G127U] | -7.23
GACCAAUCUGCCCUCAGCGCUCGAGAACAUCUUCGGAUGCAGAGGAGGCCGGCUUCGAUGGCGCGAUAGCGCCAACGUCCUCAACCUCCAAUGCAUUCCACCACAUGAUGAUGCCUGAAGAGCCUUGGUUUUUUG [A18C A50C G58A C97U] | -5.7
GACCAAUCUGCCCUCAUAGCUCGAGAACAUCUUCGGAUGCAGAGGAGGCAGGCUUCGGUGGCGCGAUAGCGCCAACGUCCUCAACCUCCAAUGCAUCCCACCACAUGAUGAUGCCAGAAAAGCCUUGGGUUUUUG [G17U U116A G120A U129G] | -5.36
GACCAAUCUGCCCUCAGCGCUCGAGAACAUCUUCGGAUGCAGAGGAGGAAGGCUUCGGUUGCGCGAUAGCGCCAACGUCCUCAACCUCCAAUGCAUCCCACCACAAGAUGCUGCCUGAAGAGCCUUGGUUUUUUG [A18C C49A G60U U106A A111C] | -5.37
GACCAAUCUGCCCUCAGCGCUCGAGAACAUCUUCGGAUGCAGAGGAGGGAGGCUUCGGUGGCGCGAUAGCGCCAACGUCCUCAACCUCCAAUGCAUCCCACCACAUGAUGAUGCCUGAAGAGCCUUGGUUUUUUG [A18C C49G] | -3.27
